Experiment [1] concerns the target T1, Human DDR1 extracellular domain (ECD) protein (human, UniProt Q08345 21-417).
T1 construct: it is treated here as the same molecule; also called recombinant human DDR1 ECD; huDDR1 ECD; not shown: 6xHIS-tag
The experiment can be described thus: ELISA on DDR1, antibody at 10 and 1 µg/ml.

The target of the next experiment is T2, human DDR2 ECD (human, UniProt Q16832 22-399).
T2 construct: extracellular domain; also called DDR2 ECD protein
T2 sequence (looked up): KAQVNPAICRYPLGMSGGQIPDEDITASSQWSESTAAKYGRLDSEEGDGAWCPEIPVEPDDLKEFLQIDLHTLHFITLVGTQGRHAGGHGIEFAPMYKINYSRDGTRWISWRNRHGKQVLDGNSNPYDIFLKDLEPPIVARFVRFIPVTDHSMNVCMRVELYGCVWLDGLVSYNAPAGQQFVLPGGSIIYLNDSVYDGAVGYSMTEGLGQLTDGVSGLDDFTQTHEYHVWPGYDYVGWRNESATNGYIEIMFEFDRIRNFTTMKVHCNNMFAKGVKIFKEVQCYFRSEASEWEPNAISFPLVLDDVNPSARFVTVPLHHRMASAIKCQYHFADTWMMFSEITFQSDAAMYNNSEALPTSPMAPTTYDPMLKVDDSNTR
The experiment can be described thus: ELISA, DDR2 ECD coated, antibody at 1 ug/ml, HRP anti-rabbit detection. As to the method: FIG. 19. Determination of cross-reactivity of a panel of monoclonal antibodies to human DDR2 using ELISA method. DDR1 or DDR2 ECD protein was coated on a high binding plate and each of monoclonal antibodies at 1 ug/ml concentration was added for binding detection with HRP conjugated anti-rabbit antibody (Jackson ImmuneResearch, PA).
To determination cross-reactivity of a panel of anti-human DDR1 monoclonal antibodies to human DDR2 ECD, an ELISA method was used. DDR1 ECD or DDR2 ECD protein was coated on a high binding plate and each of monoclonal antibodies was applied at 1 ug/ml concentration and binding was detected using HRP conjugated anti-rabbit antibody (Jackson ImmuneResearch, PA). Monoclonal antibodies DDR1-3; DDR1-9; DDR1-10; DDR1-14 and DDR1-33 were specific for DDR1 epitopes, while clones DDR1-13; DDR1-15; DDR1-21; DDR1-22 and DDR1-34 appear to recognize epitopes present on both DDR1 and DDR2 ECD.
(An ELISA detects its analyte on a solid surface through an enzyme-linked reagent.)

The target of experiment [2] is T1, Human DDR1 extracellular domain (ECD) …. In words: BLI (Octet); target not given, recombinant DDR1 assumed. In general terms: In BLI a coated tip is dipped into the sample, and binding shifts an interference pattern.

Consider 17 molecules from US20230235078A1 (University of Texas, published 2023).

Residue numbers refer to the chain shown, from its start.

T1 sequence (Q08345 21-417): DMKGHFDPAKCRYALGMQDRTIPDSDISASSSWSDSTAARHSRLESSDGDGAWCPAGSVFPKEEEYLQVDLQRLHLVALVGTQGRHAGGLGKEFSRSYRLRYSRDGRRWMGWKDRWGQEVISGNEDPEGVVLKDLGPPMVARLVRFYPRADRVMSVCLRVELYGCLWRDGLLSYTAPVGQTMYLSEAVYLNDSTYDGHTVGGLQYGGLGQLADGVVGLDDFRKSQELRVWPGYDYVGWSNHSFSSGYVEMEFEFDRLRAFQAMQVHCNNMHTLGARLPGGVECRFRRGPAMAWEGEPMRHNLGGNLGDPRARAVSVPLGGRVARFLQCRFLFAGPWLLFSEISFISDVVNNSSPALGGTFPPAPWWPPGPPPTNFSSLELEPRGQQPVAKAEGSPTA

B1: DDR1-21 (antibody, V domains shown)
VH: QSLEESGGRLVTPGTPLTLTCTVSGFSLSSYGVHWVRQAPGKGLDWIGKIYPSGSIYYSSWAKGRFTISKTSTTVDLKMTSLTTEDTATYFCVRYLTGSSDLHLWGPGTLVTISS
VL: ELVLTQTPSSTSAAVGGTVTISCQSSQSVVDKNWLAWYQQKPGQPPKLLIYEASKLASGVPPRFSGSGSGTQFTLTISGVQCDDAATYYCAGDFESGVSGFGGGTEVEIK
notes: Rabbit variable domains; Detected with anti-rabbit HRP antibody in the DDR2 ELISA; also called DDR1-21K/DDR1-21H
For the molecule B1, the binding result (in experiment [1]; in the experiment with human DDR2 ECD) was “binds” in each case.

B2: DDR1-9Hu-Ab2 (antibody, V domains shown)
VH: QVQLVESGGRVVQPGRSLRLSCTASGFSLNRYYMLWVRQAPGKGLEWIGTISYGDTTYYASWAKGRFTISRDNSKNTLYLQMNSLRAEDTAVYYCARADTGDNGYLGLQLWGQGTLVTVSS
VL: DIQMTQSPSSVSASVGDRVTITCRASQSIGSVLAWYQQKPGKAPKLLIYGVFSLQSGVPSRFSGSGSGTDFTLTISSLQPEDFATYYCQYIPYGSSPFGGGTKVEIK
notes: Humanized form of DDR1-9
On to B2, for which, in experiment [2], the Kd (as a rule, the equilibrium constant for the complex coming apart) was 0.77 nM; the koff – broadly, the first-order rate constant of dissociation – is 0.000113 s⁻¹; the association rate constant (kon) (commonly a measure of how fast the partners come together) came out at 146000 M⁻¹ s⁻¹.

B3: DDR1-13 (antibody, V domains shown)
VH: EQSVEESGGRLVTPGGSLTLTCTASGFSLNNYAIIWVRQAPGKGLEYIGIFNNGDIYYANWAKGRFTISKTSTTVGLKIVSPTTEDTATYFCARTGYRTGGWLWGPGTLVTISS
VL: ELVMTQTPSPVSAAVGGTVSISCQSSKSVYNNNALSWFQQKPGQPPKVLIYGVSTLDSGVSSRFSGSGYGTEFTLTISDVQCDDAATYYCAGDYSDISDNNFGGGTELEIK
notes: Rabbit variable domains; Detected with anti-rabbit HRP antibody in the DDR2 ELISA; also called DDR1-13K/DDR1-13H
B3: the binding result (in experiment [1]; with human DDR2 ECD) was “binds” each time.

B4: DDR1-12 (antibody, V domains shown)
VH: QSLEESGGRLVTPGTPLTLTCTVSGIDLSNTWMNWVRQAPGKGLEWIGVITDSGTTYYANWAKGRFTISRTSTTVDLKMPSLTTEDTATYFCGRDPGDITSGTNDLWGPGTLVTISS
VL: ELVLTQTPASVSEPVGGTVTIKCQASQTIYSNLAWYQQKPGQRPKLLIYQASKLASGVPSRFKGSGSGTEYTLTISDLECADAATYYCQSYYGADDYTFGGGTEVVVK
notes: also called DDR1-12K/DDR1-12H
With B4, the binding result in experiment [1] is “binds”.

B5: DDR1-5 (antibody, V domains shown)
VH: QSVKESGGRLVTPGTPLTLTCTVSGFTLSNNAISWVRQAPGKGLEWIGIIYASGRTYYATWAKGRFTISKTSTTVDLKMTSPTTEDTATYFCARGDTETDYGIPYFDLWGPGTLVTISS
VL: ELVLTQTPASVSEPVGGTVTIKCQASQTISSWLSWYQQKPGQPPKLLIYYAFNLASGVPSRFKGSGSGTEYTLTISDLECADAATYYCQCTYGSGSSSSYGCAFGGGTELEIK
notes: also called DDR1-5K/DDR1-5H
With B5, the binding result in experiment [1] is reported as “binds”.

B6: DDR1-6 (antibody, V domains shown)
VH: SQSLKESGGDLVKPGASRTLTCIAPGFSFSSSYYMCWVRQAPGKGLEWIACIYASSGSTYYASWAKGRFTISKTSSTTVTLQMTTLTAADTATYFCAAILGADYRLTRLDLWGQGTLVTVSS
VL: ELVMTQTPSPVSAAVGGTVTISCQSSQSVYSNYLSWYQQKPGQPPKLLIYETSTLASGVPSRFKGSGSGTQFTLTISDVQCDDAATYYCQGGYSEIIENTFGGGTEVEIK
notes: also called DDR1-6K/DDR1-6H
For the molecule B6, the binding result in experiment [1] is recorded as “binds”.

B7: DDR1-28 (antibody, V domains shown)
VH: QSVEESGGRLVTPGTPLTLTCTVSGFSLSSHDMIWVRQAAGKGLEWIGLIISSGNTWYASWAKGRFTISKTSTTVDLKMTSLTTEDTATYFCARDVYSGASPWGPGTLVTISS
VL: ELDLTQTPASVEAAVGGTVTIKCQASQSIDNNDLAWYQQKPGQPPNLLISRTSTLASGVSSRFKGSGSGTEFTLTISDLECADAATYYCQSYCVNTYGYTFGGGTEVVVK
notes: also called DDR1-28K/DDR1-28H
Turning to B7, the binding result in experiment [1] is “binds”.

B8: DDR1-11 (antibody, V domains shown)
VH: QSLEESGGDLVKPGASLTLTCTASGFSFSSGYYMCWVRQAPGKGLEWIACIYTGRTDFTDYASWAKGRFTISKTSSTTVTLQLTTLTAADTATYFCARGDYSGGVGGNYWLDLWGQGTLVTISS
VL: ELVMTQTASPVSAAVGGTVTINCQASQSIGSTYLSWYQQKPGQPPKLLIYKASILASGVPSRFSGSGSGTEYTLTISGVQCDDAATYYCLYGGFGSSTGDAFGGGTVLVVK
notes: also called DDR1-11K/DDR1-11H
On to B8, for which the binding result in experiment [1] is recorded as “binds”.

B9: DDR1-17 (antibody, V domains shown)
VH: SSVEESGGRLVAPGTPLTLTCTVSGFSLNRYAMSWVRQAPGKGLEWIGIIGSSGSTYYASWAKGRFTISKTSTTVDLKITSPTTEDTATYFCARDLDDSYGYTYATGMDIRLDLWGQGTLVTVSS
VL: ELVLTQTPASVSEPVGGTVTIKCQASQSIGSYLSWYQQKAGQPPKRLIYEASTLASGVPSRFSGSGSGTDFTLTISDLECADVATYYCQNNNGMTVSDFNAFGGGTEVEIK
notes: also called DDR1-17K/DDR1-17H
Regarding B9, in experiment [1], the binding result is “binds”.

B10: DDR1-1 (antibody, V domains shown)
VH: QSVEESGGRLVTPGTPLTLTCTVSGFSLSRYAMTWVRQAPGKGLEWIGIIGSSGLTYFATWAKGRFTISKTSTTVDLKITSPTTEDTATYFCARGMWYDDSDDYEDYFNLWGPGTLVTISS
VL: ELVLTQTPASVSAAVGGTVTINCQASQNIYSNLAWYQQKPGQPPKLLIYGASNLESGVPSRFKGSGSGTQFTLTISDLECDDAATYYCQSGYYSSSTDIAFGGGTEVVVK
notes: also called DDR1-1K/DDR1-1H
With B10, in experiment [1], the binding result was “binds”.

B11: DDR1-34 (antibody, V domains shown)
VH: QSVKESGGGLVKPEGSLTLTCKASGFDLSSYYYMCWVRQAPGKGLEWIACIYTSSGATWYANWAKGRFTISKTSSTTVTLQMTALTAADTATYFCARGGWCDFNLWGPGTLVTISS
VL: ELDLTQTPASVSAAVGGTVTISCQSSENLYKDNYLAWYQQKPGQPPKLLIYGASNLASGVPSRFKGSGSGTQFTLTISDLECDDAATYYCAGGYDSVVDFGGGTEVVVK
notes: Rabbit variable domains; Detected with anti-rabbit HRP antibody in the DDR2 ELISA; also called DDR1-34K/DDR1-34H
Turning to B11, the binding result (in experiment [1]; with human DDR2 ECD) was “binds” in each case.

B12: DDR1-20 (antibody, V domains shown)
VH: QSVKESGGGLFKPMDTLTLTCTVSGFSLSDYAMSWVRQAPGKGLEWIGIINSRDDTGYASWAKGRFTISKTSSTTVDLRITSPTTEDTATYFCAREDSSIPFIVGNYYGMDLWGPGTLVTVSS
VL: ELDLTQTPASVSAAVGGTVTINCQSSQIIDHDHLSWYQQKPGQRPKLLIYRASTLTSGVPSRFKGSGSGTDFTLTISDLECADVATYYCQNNNGMTVSDFNAFGGGTEVEIK
notes: also called DDR1-20K/DDR1-20H
For the molecule B12, the binding result in experiment [1] is on record as “binds”.

B13: DDR1-15 (antibody, V domains shown)
VH: SQSLEESGGDLVKPGASLTLTCTASTFSFNSRYWTCWVRQAPGKGLEWIGCINNGDISTYYASWATGRFTISKSSSTTVTLHMTSLTAADTATYFCAKGGNLAGDCYGLWGPGTLVTISS
VL: ELVMTQTPASVEVAVGGTVTIKCQASQTIYSSLAWYQQKPGQPPKLLIYKASTLASGVPSRFKGSGSGTQFTLTISGVQCDDAATYYCQQGSSISNVDKNAFGGGTEVEIK
notes: Rabbit variable domains; Detected with anti-rabbit HRP antibody in the DDR2 ELISA; also called DDR1-15K/DDR1-15H
Turning to B13, the binding result (in experiment [1]; with human DDR2 ECD) was “binds” in each case.

B14: DDR1-22 (antibody, V domains shown)
VH: QSVKESGGRLVTPGGSLTLTCTVSGFSLSDYAMIWVRQAPGKGLEYIGIINNGDIYYATWAKGRFTISETSSTTMGLNIISPTTEDTATYFCARPGYRTGIWLWGPGTLVTISS
VL: ELVLTQTPSPVSAAVGGTVTINCQSSKNIYNNNALSWFQQKPGQPPKLLIYGASTLASGVPSRFKGSGSGTQFTLTISDVQCDDAATYYCAADYSDISDNNFGGGTEVVVK
notes: Rabbit variable domains; Detected with anti-rabbit HRP antibody in the DDR2 ELISA; also called DDR1-22K/DDR1-22H
On to B14, for which the binding result (in experiment [1]; with human DDR2 ECD) was “binds” in each case.

B15: DDR1-23 (antibody, V domains shown)
VH: SQSVKESGGDLVKPGASLTLTCKASGFDLRSYYYMCWVRQAPGKGLEWIACIHGGEGNTYYASWAKGRFTISKTSSTAVTLQMTSLTAADTATYFCARGGWTNYFWGPGTLVTVSS
VL: ELVLTQTPSSVSAAVGGTVTISCQSSQSVYSNNYLAWYQQKPGQPPKLLIYAASTLASGVPSRFKGSGSGTQFTLTISGVQCDDAAVYYCLGGYNDDANFGGGTEVEIK
notes: also called DDR1-23K/DDR1-23H
With B15, in experiment [1], the binding result is on record as “binds”.

B16: DDR1-26 (antibody, V domains shown)
VH: EQSLKESGGDLVKPGASLTLTCTASGFDLSSNYYMCWVRQAPGKGPEWIACIYSSNTRTWYARWAKGRFTISKTSSTAVTLQMTSLTAADTATYFCARGGWTNYLWGPGTLVTISS
VL: B15 VL with V3D, Q27E, Y34H, K65S, E107V, I108V
notes: also called DDR1-26K/DDR1-26H
Turning to B16, the binding result in experiment [1] is listed as “binds”.

B17: DDR1-29 (antibody, V domains shown)
VH: QSVKSGGGLVKPGASLTLTCKASTFSFNSRYWTCWVRQAPGKGLEWIGCINNGDITTYYTNWATGRFTISKSSSTTVTLQMTSLTAADTATYFCAKGGNLAGDCYGLWGPGTLVTISG
VL: ELVMTQTPASVEAAVGGTVTIKCQASQSISNHLGWYQQKPGQPPKLLIYRASTLESGVSSRFKGSGSGSEFTLTISDLECADAATYYCQSYYIINRSNYANSFGGGTEVEIK
notes: also called DDR1-29K/DDR1-29H
On to B17, for which the binding result in experiment [1] is “binds”.
